Results published in paper PMC3163069.
Like-named read-outs stand apart in the source and are kept apart here.

Assays:
[1] = biological target: Id (pBIND-Id, fusion with the DNA-binding domain of yeast gal4); assay: two-hybrid
[2] = biological target: Id (pBIND-Id, fusion with the DNA-binding domain of yeast gal4); assay: two-hybrid; remark: listed apart in the source

MyoD (pACT-MyoD, fusion with the VP16 transactivation domain of herpes simplex virus) (natural protein)
luciferase reporter activation over basal (two-hybrid) [1]: 10 fold
luciferase reporter activation over basal (two-hybrid) [2]: 70 fold
